According to patent publication US20050037404A1:

Target: all of the coactivators tested
Test: cell-based or functional assay

B1: VP16 transactivation domain linked to the ligand binding domain of SXR (VP-L-SXR), P06492 413-490; O75469 107-434 (protein)
chain: APPTDVSLGDELHLDGEDVAMAHADALDDFDLDMLGDGDSPGPGFTPHDSAPYGALDMADFEFEQMFTDALGIDEYGGMKKEMIMSDEAVEERRALIKRKKSERTGTQPLGVQGLTEEQRMMIRELMDAQMKTFDTTFSHFKNFRLPGVLSSGCELPESLQAPSREEAAKWSQVRKDLCSLKVSLQLRGEDGSVWNYKPPADSGGKEIFSLLPHMADMSTYMFKGIISFAKVISYFRDLPIEDQISLLKGAAFELCQLRFNTVFNAETGTWECGRLSYCLEDTAGGFQQLLLEPMLKFHYMLKKLQLHEEEYVLMQAISLFSPDRPGVLQHRVVDQLQEQFAITLKSYIECNRPQPAHRFLFLKIMAMLTELRSINAQHTQRLLRIQDIHPFATPLMQELFGITGS
Gal4 reporter activity in mammalian two-hybrid assay, 10 µM docetaxel against 10 µM paclitaxel (% less than with paclitaxel): 25 to 40
